Test results reported in PMC3694354 (Biochemistry, 2008).

Tests used:
[1] = biological target: T1, 4-chlorobenzoate:CoA ligase (CBL; CBAL) (Alcaligenes sp. AL3007, UniProt Q8GN86); experiment: coupled AMP-forming assay, inhibition kinetics; assay type: biochemical
T1 sequence (Q8GN86 1-504): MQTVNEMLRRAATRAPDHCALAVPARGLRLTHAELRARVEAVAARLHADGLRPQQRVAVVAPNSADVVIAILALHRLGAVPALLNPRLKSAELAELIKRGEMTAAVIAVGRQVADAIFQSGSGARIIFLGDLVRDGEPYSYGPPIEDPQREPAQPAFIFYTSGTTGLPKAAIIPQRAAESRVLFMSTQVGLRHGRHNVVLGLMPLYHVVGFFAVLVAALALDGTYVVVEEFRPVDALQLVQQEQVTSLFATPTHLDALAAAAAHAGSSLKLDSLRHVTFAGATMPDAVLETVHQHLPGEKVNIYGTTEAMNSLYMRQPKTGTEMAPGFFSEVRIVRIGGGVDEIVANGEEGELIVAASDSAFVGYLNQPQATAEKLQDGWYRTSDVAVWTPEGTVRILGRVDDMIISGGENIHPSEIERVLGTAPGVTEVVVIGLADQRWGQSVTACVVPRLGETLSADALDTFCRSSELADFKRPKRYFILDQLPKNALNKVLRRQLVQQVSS

[2] = biological target: T1, 4-chlorobenzoate:CoA ligase (CBL; CBAL); experiment: direct spectrophotometric assay at […] nm, inhibition kinetics; assay type: biochemical
purified protein = substrate: Cc1ccc(C(=O)O)cc1; experiment: purified protein; conditions: 3.5 mM ATP, CoA varied, 15 mM MgCl2, pH 7.5, 25 °C
[3] = substrate: CC(C)(COP(=O)(O)OP(=O)(O)OC[C@H]1O[C@@H](n2cnc3c(N)ncnc32)[C@H](O)[C@@H]1OP(=O)(O)O)[C@@H](O)C(=O)NCCC(=O)NCCS; experiment: coupled AMP-forming assay, initial velocity; assay type: biochemical, Alcaligenes sp. AL3007; conditions: 3.5 mM ATP, 4-methylbenzoate varied, 15 mM MgCl2, pH 7.5, 25 °C
[4] = substrate: Nc1ncnc2c1ncn2[C@@H]1O[C@H](COP(=O)(O)OP(=O)(O)OP(=O)(O)O)[C@@H](O)[C@H]1O; experiment: coupled AMP-forming assay, initial velocity; assay type: biochemical, Alcaligenes sp. AL3007; conditions: 200 μM 4-methylbenzoate, CoA varied, 15 mM MgCl2, pH 7.5, 25 °C

CC(C)(COP(=O)(O)OP(=O)(O)OC[C@H]1O[C@@H](n2cnc3c(N)ncnc32)[C@H](O)[C@@H]1OP(=O)(O)O)[C@@H](O)C(=O)NCCC(=O)NCCSCc1ccc(Cl)cc1 [4-chlorobenzyl-CoA]
Ki [1]: 45 ± 10 µM

O=P(O)(O)OP(=O)(O)O [PPi]
Ki [1]: 95 ± 10 µM

Nc1ncnc2c1ncn2[C@@H]1O[C@H](COP(=O)(O)O)[C@@H](O)[C@H]1O [AMP]
Ki [2]: 120 ± 20 µM

CC(C)(COP(=O)(O)OP(=O)(O)OC[C@H]1O[C@@H](n2cnc3c(N)ncnc32)[C@H](O)[C@@H]1OP(=O)(O)O)[C@@H](O)C(=O)NCCC(=O)NCCSCC(=O)c1ccc(Cl)cc1 [4-CP-CoA, 4-chlorophenacyl-CoA]
Ki [1]: 21 ± 8 µM

B1: 4-chlorobenzoate:CoA ligase (CBL; CBAL) (Alcaligenes sp. AL3007) (protein)
chain: T1 sequence (Q8GN86 1-504)
Km (purified protein): 30 ± 5 µM
kcat (purified protein): 8.0 ± 0.6 s⁻¹
Km [3]: 160 ± 20 µM
kcat [3]: 8.0 ± 0.6 s⁻¹
Km [4]: 180 ± 15 µM
kcat [4]: 8.2 ± 0.3 s⁻¹
